Reference: paper PMC8178248
“And” between values parts separate entries of the source, which are not always exact repeats. Equal entries are not always repeated.

Experiments:
[1] = molecular target: DrdV restriction-modification enzyme (Deinococcus wulumuqiensis 479); test: cryo-EM structure
[2] = molecular target: DrdV restriction-modification enzyme (Deinococcus wulumuqiensis 479); test: negative stain EM
[3] = molecular target: DrdV restriction-modification enzyme (Deinococcus wulumuqiensis 479); test: SEC
[4] = molecular target: DrdV restriction-modification enzyme (Deinococcus wulumuqiensis 479); test: cryo-EM structure; remark: listed apart in the source

DrdV restriction-modification enzyme
stoichiometry N [1]: 3 and 4 | stoichiometry N [2]: 4 | stoichiometry N [3]: 4 | stoichiometry N [4]: 2
